{
  "source": "the DeepSol protein solubility set",
  "data": [
    {"experiment": "soluble on expression in E. coli; label from the status in PepcDB or PDB records", "values": [
      {"sequence": "MSAISSFVLECAHAGRWVRGLMALQEQHLPAEPSMRVACVALAQAAAPHSWAAALCLLRPSDALRHPQEVCKTVDTIARHAQLPIDVFESSMEALLLSLQQLSQSKSHPASGSSRQLASIGPCEALGLATPSTPIQQQVFLSATQWCGWETAARLLACLPSPLPQACVERVQELRTLRHRILHDVGPFCHWGSRAALSSVIGSAGGPLPASAQGTSLAEQLERMEPSPARRYSARDRRELSWLRDHKRQRLLQRTREEEDMLTRQAAEDVAPSALSVCAALRAVTRLPSAASVTAPHVLCRHVLTLSQSRRLTPDIALLYGRAAGLCTPHSWEATVDTLNRAEVRDARLHRQLTTWVISRGSWRAALERLSQLHRDTSSAVPQRSGNNTGDLHRGGDAAASFDCVQRTAVPASYLHRVVPQVSRPWCRLVSSRHSTASLLRQIAGALAGGVRLDEVQLSEAGKEWAANGRWEAALALYYRFPLPEFQKYATRSLVTARPALPPVPSVSHPPSSCLQIGSDPLPGSPSKDSAMFYARTVLELLVPRDGVRYDSASPPRPAPPLGTYPACLVIDAAADWSEAVAVFRACVRRGTRCNPQLLSTLMRRQDLPPQELRQILKSYPAAVNDGVRRRAKEGFGVE", "soluble on expression in E. coli": "not soluble"},
      {"sequence": "MDYQERLKNLPPEVMTAFSESFIFLISNDKVQHFPARDLTQAEMIQRVKEKLGEAVTWSLWQGFVIAVNSEETCVAVLPKYYQLDGFENE", "soluble on expression in E. coli": "not soluble"},
      {"sequence": "VAERNSLAKTVYAIFVPLREGESQIAAEITPMRSERFGVDVLPGHPALSQIEDLMSDSWQSALGRQTGPFRRIHWAGQLAHAMERDDRYDVIFFDVGPSLGPFNRTVLLGCDAFVTPTATDLFSFHAFGNLARWFDAWVTQYAEIHEGNMAEWKKYSADVEAKTRPLRLGGFDGEGLRYLGYTTLEYVKRRANGQEQLVGAFERFRGRFAAEAERISNSLSKHSNSTLLGHVPHMHSMPATAQDVHAPIMELSSSDRVRGAQINQRNAYAEKINSVAANVYKALFPNE", "soluble on expression in E. coli": "not soluble"},
      {"sequence": "MFRSVVVSVRQPAVAGYFYPDDPLTLKQTVLNFLDQAPIHKPAPKAILVPHAGYVYSGAVAASAYASLRDKKDTINKIILLGPAHRLYFKGIAYDPVDKFATPLGEIDQDKELLTQIIDLPYVYSLPEAHQNEHCLEVQLPFCQMIFSKFKILPLVIGETNPQDVARLIARIWGGDDTLLIISSDLSHYLPYHIAQREDKKTCLSIDTLNGEEILHDAACGYFPLRGFLYFGRQNHVYSRLLDLRNSGDTAGDKERVVGYAAYHFYQKLKFSEHCADELKYIAKETIRLQTEENKALTINYNDYSQLLQMRVPTFITLKKNGMLRGCMGSLTTKDPLAENIIYNSIRAASADPRFPQIKPCELKELSLTISLIKPLSPLHFDSEEELKSQLQIGLDGLVLICGPYQATFLPSVWESVKTKDEFINHLKLKMGLSENFWSSEMRALRYATEIIKLEHHHHHH", "soluble on expression in E. coli": "not soluble"},
      {"sequence": "NAADGIFFPALEQNMMGAVLINENDEVMFFNPAAEKLWGYKREEVIGNNIDMLIPRDLRPAHPEYIRHNREGGKARVEGMSRELQLEKKDGSKIWTRFALSKVSAEGKVYYLALVRDAS", "soluble on expression in E. coli": "soluble"},
      {"sequence": "MGSDKIHHHHHHMNSGEYKYIWQASDWPNWRFDLAALAEPMAEVSRAQGLLMGRLADVGMALRDQASLAALTEDVVKTSEIEGEQLNVESVRSSIARRLGVDIGALAPVDRHVEGVVEMVLDATANCQALVSRERLFGWHAALFPTGYSGLSKINVGGWRDDATGPMQVVSGPIGRQRVHFEAPPADRLETETSRFLDWLNGTLNEPPLLKAGLGHLWFVTLHPFDDGNGRIARAIGDLLLARADGSPQRFYSLSAQIQRERKAYYDILERTQKRSMDVTEWLAWFLDTLHRAVDQAQHTLDAVLTKARFWQRWATTPLNERQVKLLNKLLDGFEGKLTSSKWAAIAKCSPDTALRDINDLLTRGVLRKSDAGGRSTSYELNDLPE", "soluble on expression in E. coli": "not soluble"},
      {"sequence": "MASHIVGYPRMGPKRELKFALESFWDGKSTAEDLQKVSADLRSSIWKQMSAAGTKFIPSNTFAHYDQVLDTTAMLGAVPPRYGYTGGEIGLDVYFSMARGNASVPAMEMTKWFDTNYHYIVPELGPEVNFSYASHKAVNEYKEAKALGVDTVPVLVGPVSYLLLSKAAKGVDKSFELLSLLPKILPIYKEVITELKAAGATWIQLDEPVLVMDLEGQKLQAFTGAYAELESTLSGLNVLVETYFADIPAEAYKTLTSLKGVTAFGFDLVRGTKTLDLVKAGFPEGKYLFAGVVDGRNIWANDFAASLSTLQALEGIVGKDKLVVSTSCSLLHTAVDLINETKLDDEIKSWLAFAAQKVVEVNALAKALAGQKDEALFSANAAALASRRSSPRVTNEGVQKAAAALKGSDHRRATNVSARLDAQQKKLNLPILPTTTIGSFPQTVELRRVRREYKAKKVSEEDYVKAIKEEIKKVVDLQEELDIDVLVHGEPERNDMVEYFGEQLSGFAFTANGWVQSYGSRCVKPPVIYGDVSRPKAMTVFWSAMAQSMTSRPMKGMLTGPVTILNWSFVRNDQPRHETCYQIALAIKDEVEDLEKGGIGVIQIDEAALREGLPLRKSEHAFYLDWAVHSFRITNCGVQDSTQIHTHMCYSHFNDIIHSIIDMDADVITIENSRSDEKLLSVFREGVKYGAGIGPGVYDIHSPRIPSSEEIADRVNKMLAVLEQNILWVNPDCGLKTRKYTEVKPALKNMVDAAKLIRSQLASAK", "soluble on expression in E. coli": "soluble"},
      {"sequence": "GHHHHHHHHHHSSGHIEGRHMRVLFVSSPGIGHLFPLIQLAWGFRTAGHDVLIAVAEHADRAAAAGLEVVDVAPDYSAVKVFEQVAKDNPRFAETVATRPAIDLEEWGVQIAAVNRPLVDGTMALVDDYRPDLVVYEQGATVGLLAADRAGVPAVQRNQSAWRTRGMHRSIASFLTDLMDKHQVSLPEPVATIESFPPSLLLEAEPEGWFMRWVPYGGGAVLGDRLPPVPARPEVAITMGTIELQAFGIGAVEPIIAAAGEVDADFVLALGDLDISPLGTLPRNVRAVGWTPLHTLLRTCTAVVHHGGGGTVMTAIDAGIPQLLAPDPRDQFQHTAREAVSRRGIGLVSTSDKVDADLLRRLIGDESLRTAAREVREEMVALPTPAETVRRIVERISG", "soluble on expression in E. coli": "soluble"},
      {"sequence": "MSLGKKLKIFFIDDDIALGHICTRIMQEEGYEVLYQTSLNGAKACIVETHPDMIVLDVEIGNKNGIEAVPELKAIAPNTPILFISSHTNSQLVVQALSAGAVAYLKKPLEIDELIAYIKRYAISHPYQIKIGSLLLDTDTQLLCTKELRVIKQLSEAEYKLLKLLVAYKEQLVERRQIEEELWGKVNGNEQGINNLISKLRKYLSIDPTIELVTIPRNGYKLSVNLSEGHHHHHH", "soluble on expression in E. coli": "soluble"},
      {"sequence": "MRHVSNGDPVRVVIVTDGAYGAPAESGDYAQTRRRESTRAAAILGYGAPEFWNLPDRGLEYGERLIQRVLTAMEDHAAELVYAPSWWEVHPDHRVLALAATEAVRRCTRPLRLAMYEVGVPLQPNALLDITDLAERKASAVACFSSQLAQQDYDEQIASLNRFRTYTLPRTVRAAEGYLVLAAEELRNRIPRMMTQKDRLAVRGETGDTAATPLVSVIIPSMDGPRLKEALDSVALQTYPRIEAVVIDAKGEGHTPLPRWCGRFPLRFIPSDISLSRGRAADVGLEHAEGDYLVFLGEDDVFQPGDVASLVAEAARKQGTGLCSHADRRMTVFSGGVVDGSPRTGKPGKPAFLPLHAVLFDRSLAELRCRFDGDANVPEDGDFWDQAMQHVASIHPGACRHGHGLPGGEAGRHTIVRLPPWTSPAPLPPGASLARTPHPTERDSLRRRIQRAGRRIYETPPRGLTDALVRTAYRIWARLSSDSMITNDGKGTLEHHHHHH", "soluble on expression in E. coli": "not soluble"},
      {"sequence": "LKQKVENLFNEKCGEALGLKQAVKVPFALFESFPEDFYVEGLPEGVPFRRPSTFGIPRLEKILRNKAKIKFIIKKPEMFETAIKES", "soluble on expression in E. coli": "soluble"},
      {"sequence": "MGSDKIHHHHHHMNDDFLFSDDEPDIAEEEVSEPYNILIVDDDEEIHTITKMALGEFKLDGRPLKFHSVYSGKDAIAFLQDNTNIAMMLLDVVMETDHAGLDVAQWVRETRKNRLIRIVLRTGQPGQAPEEDVIARYDIDDYKEKTELTYRKLVTLMYSCLRAYRDLNAIERNKRGLEKVINASAEVFSARSMQALCQGILEQLVALITLSDDAMYCRIDALTASSDTDDPFEIIGGTGEYEEAVGQPVHGEIDWDIVRPMQQSPQNVDFRIVDGNYYGLYKTSSSRQYLLFIRGVRDLSELDQNLLGLFVNNSSIAIDNLQATENEREAQRELLYSVGEAIEKHSIDEISHHVKRSAEMAGQLAIFSGATQEQAEALKQAASVYDIGKVSVQMELAQRADVLSIHEYEEIMQKVIQGHDYLRQTDSAVAKVAALIAQDIHERWNGSGFPSQKSAKAIDLNARILSITSHFDALRTQRNYRDAKESEDAADYLLQHSGKFFDPELVGLMLDNLDAMEKIRQRFLDKKQDTRH", "soluble on expression in E. coli": "not soluble"},
      {"sequence": "MIEYAALKFNVVSDPMSETAKKVIVGMSGGVDSSVSAWLLQQQGYQVEGLFMKNWEEDDGEEYCTAAADLADAQAVCDKLGIELHTVNFAAEYWDNVFELFLAEYKAGRTPNPDILCNKEIKFKAFLEFAAEDLGADYIATGHYVRRADVDGKSRLLRGLDSNKDQSYFLYTLSHEQIAQSLFPVGELEKPQVRKIAEDLGLVTAKKKDSTGICFIGERKFREFLGRYLPAQPGKIITVDGDEIGEHQGLMYHTLGQRKGLGIGGTKEGTEEPWYVVDKDVENNILVVAQGHEHPRLMSVGLIAQQLHWVDREPFTGTMRCTVKTRYRQTDIPCTVKALDDDRIKVIFDEPVAAVTPGQSAVFYNGEVCLGGGIIEQRLPLPV", "soluble on expression in E. coli": "not soluble"},
      {"sequence": "MKEKGGDSLKYCYQCGLCDSVCPWNRVRQFSMRKIVRQGTFGLTEIEQEDIWRCSTCGTCPSRCPRGVNQIEAGVAMRRIGAEYDVYPGHVGTIRNVVASLTSEGNSLEHHHHHH", "soluble on expression in E. coli": "not soluble"},
      {"sequence": "MGSDKIHHHHHHMRAVTAQAITEAVAKLCKEACYYVTPDMYAAFKKAEETEVSPLGKHILGRIIENADIAKREDMPICQDTGMTVVFVEIGQEVKIEGGYIEDAINAGVAKGYTEGYLRKSVVGEPLFNRANTKDNTPAVIHTRIVPGDKLKLKVCPKGFGSENKSVLKMLVPADGLEGVKKVFLEAVKLAGPNACPPMVIGVGIGGTMEKAAILAKKAAVRSVDSYNEHPDYAQLEKDLLEMACATGVGPQGLGGINTAVKVNIEWYPTHIAGLPVAVNINCHAARHADVTL", "soluble on expression in E. coli": "not soluble"},
      {"sequence": "MTFKDLRDFIAQLEQRGALKRIQVPISPVLEMTEVCDRTLRAKGPALLFEKPTGFDMPVLGNLFGTPERVALGMGAEDVGALREIGKLLAQLKEPEPPKGLKDAWAKLPMYRKVLSMAPKVLKDAPCQEVVEEGEDVDLGRLPVQTCWPGDVGPLITWGLTVTRGPNKERQNLGIYRQQVIGRNKVIMRWLSHRGGALDYREWCQKHPGQPYPVAVALGADPATILGAVTPVPDTLSEYAFAGLLRGHRTELVKCRGSDLQVPASAEIVLEGVIHPGEMADEGPYGDHTGYYNEVDRFPVFTVERVTRRQKPIYHSTYTGRPPDEPAILGVALNEVFVPILQKQFPEIVDFYLPPEGCSYRMAVVTMKKQYPGHAKRVMLGVWSFLRQFMYTKFVIVTDDDIDARDWNDVIWAITTRMDPKRDTVMIDNTPIDYLDFASPVSGLGSKMGLDATHKWPGETSREWGRAIVKDEAVTRRIDALWSSLGIDAAALEHHHHHH", "soluble on expression in E. coli": "not soluble"},
      {"sequence": "DPTQSVRAYYIQNGDSTKTVIIGQGWTEHVDWIGYVSKIWYDMGYNVLMPSQRGQFLSDGDNLTFGYQDKYDWLNWVKMVDERNGADSQVVFYGQSLGADTVLEAASVPGLSKSVKAVVSDAGYATLPELGSSLYNKAITAVSNALQSIGLPAITSLPFLSYDKIVAAMNARLIKEQGFSVDDLSATDAASKITIPLLLIHTQDDAFIPYTQSLELAAANHSANQEVWILPGTVGGHAAANNAILQYRQHLLAFLTPLLSVADAED", "soluble on expression in E. coli": "not soluble"}
    ]}
  ]
}
